{
  "source": "paper PMC6163214",
  "about": "“Etoposide-Induced Apoptosis in Cancer Cells Can Be Reinforced by an Uncoupled Link between Hsp70 and Caspase-3” (International Journal of Molecular Sciences, 2018)",
  "key": {"Hsp70": {"molecular_target": "T1, Hsp70 (Homo sapiens, UniProt P0DMV8)", "T1 construct": "gene HSPA1A", "T1 sequence (P0DMV8 2-641)": "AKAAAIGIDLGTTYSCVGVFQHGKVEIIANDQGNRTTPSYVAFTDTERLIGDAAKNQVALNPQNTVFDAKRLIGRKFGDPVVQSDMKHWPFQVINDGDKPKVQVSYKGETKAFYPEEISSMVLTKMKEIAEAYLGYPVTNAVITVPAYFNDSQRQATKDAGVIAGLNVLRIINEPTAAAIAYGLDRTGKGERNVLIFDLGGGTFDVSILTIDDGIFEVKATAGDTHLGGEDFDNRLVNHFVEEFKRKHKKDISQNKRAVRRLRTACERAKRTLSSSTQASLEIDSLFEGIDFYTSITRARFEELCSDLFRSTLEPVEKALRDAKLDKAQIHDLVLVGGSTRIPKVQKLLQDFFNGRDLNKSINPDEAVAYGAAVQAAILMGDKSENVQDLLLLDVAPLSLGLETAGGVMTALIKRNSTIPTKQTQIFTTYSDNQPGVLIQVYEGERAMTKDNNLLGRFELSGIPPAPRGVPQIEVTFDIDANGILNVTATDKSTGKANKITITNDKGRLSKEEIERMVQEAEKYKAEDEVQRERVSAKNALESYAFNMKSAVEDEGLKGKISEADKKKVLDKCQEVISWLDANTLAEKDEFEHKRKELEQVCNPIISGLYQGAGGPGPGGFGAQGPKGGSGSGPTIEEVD", "experiment": "microscale thermophoresis with NT-647-labeled purified Hsp70; supported by DARTS and substrate-binding assay"}, "[1]": {"molecular_target": "Caspase-3 (human (endogenous in U-937)) (UniProt P42574)", "sequence (P42574 whole entry)": "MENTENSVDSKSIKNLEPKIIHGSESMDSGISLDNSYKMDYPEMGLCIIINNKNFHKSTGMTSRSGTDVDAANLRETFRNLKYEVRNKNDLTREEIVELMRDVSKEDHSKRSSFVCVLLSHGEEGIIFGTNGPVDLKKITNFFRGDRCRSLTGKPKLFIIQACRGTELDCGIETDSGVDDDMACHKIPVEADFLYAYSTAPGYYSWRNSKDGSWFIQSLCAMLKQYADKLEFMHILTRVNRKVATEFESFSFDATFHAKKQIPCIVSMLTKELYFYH", "experiment": "co-IP; as a4, but biotinylated Hsp70 pretreated with 32 µM BT44"}, "[2]": {"molecular_target": "Caspase-3 (human (endogenous in U-937)) (UniProt P42574)", "experiment": "ELISA; same competitive protein-protein interaction assay, read as competition: cellular Hsp70 of the lysate (raised by heat shock or hsp70 transfection) holds Caspase-3 of the lysate away from the immobilised pure Hsp70"}},
  "data": [
    {"molecule": "CCc1cc(-c2n[nH]cc2-c2ccc3c(c2)OCO3)c(O)cc1OC1OC(CO)C(O)C(O)C1O", "note": "(stereo not drawn) [BT44, 2-[4-(4-Benzo[1,3]dioxol-5-yl-1H-pyrazol-3-yl)-2-ethyl-5-hydroxy-phenoxy]-6-hydroxymethyl-tetrahydro-pyran-3,4,5-triol]", "values": [
      {"measurement": "Kd", "setting": "Hsp70", "value": "5.2 ± 0.3", "unit": "µM"}
    ]},
    {"molecule": "Biotinylated Hsp70 (from UniProt P0DMV8 1-641) (natural protein)", "values": [
      {"measurement": "fold lower amount bound with BT44 than without BT44", "setting": "[1]", "value": 10, "unit": "fold"}
    ]},
    {"molecule": "Cellular Hsp70 of U-937 cells (from UniProt P0DMV8 1-641) (natural protein)", "values": [
      {"measurement": "percent decrease of Caspase-3 bound to immobilized Hsp70 (against U-937wt cells treated with etoposide alone)", "setting": "[2]", "value": "35 to 50", "unit": "%"}
    ]}
  ]
}
